The results in this text go back to US8409836B2, “Treatment of cellulosic material and enzymes useful therein” (Roal Oy, priority 2005, dated 2013).

Holding throughout (assay type): biochemical
Data set [1] can be described thus: pH optimum of heterologously produced endoglucanases. The note with it: McIlvaine's buffer; for pH optimum: pH range 4.0-8.0, CMC, 10 min, 50° C. The method, then:
(§1) The pH optimum of the heterologously produced endoglucanases was determined in the universal McIlvaine's buffer within a pH range of 4.0-8.0 using carboxymethylcellulose as substrate. As shown in FIG. 6 A the broadest pH range (4.5-6.0) is that of the Acremonium EG—40/Cel45A protein, the optimum being at pH 5.5. The pH optima for the other heterologously produced endoglucanases are pH 5.0-5.5 and 6.0 for Acremonium EG—40_like/Cel45B and Thermoascus EG—28/Cel5A, respectively. The optimal temperature for enzymatic activity of these endoglucanases was determined at the temperature range of 50-85° C. as described above. The highest activity of the enzymes was determined to be at 75° C., 60° C., and 75° C. for the Acremonium EG—40/Cel45A, EG—40 like/Cel45B, and Thermoascus EG—28/Cel5A, respectively (FIG. 6 B).

Data set [2] in a line: Temperature optimum of heterologously produced endoglucanases. Particulars: temperature range 50-85° C., CMC. Here is the method: as §1
A short description of data set [3]: Hydrolysis with endoglucanase preparations, spruce. The note with it: 48 h, 45° C., pH 5.0. The method, then: (§2) The preparations containing the endoglucanases were compared in hydrolysis studies mixed with the purified CBH/Cel7 and CBH/Cel6 enzymes on several pre-treated substrates. Culture filtrates of T. reesei, containing different cloned endoglucanase enzymes were obtained as described in Example 19. The enzymes were enriched by removing thermolabile proteins from the mixtures by a heat treatment (60° C., 2 h, pH 5) and the supernatant was used for the hydrolysis studies. In addition, pure T. reesei cellulases (purified as described by Suurnäkki et al., 2000) were used in the enzyme mixtures. The endoglucanases used in the experiment were:
Washed steam pre-treated spruce fibre (impregnation with 3% SO2 for 20 min, followed by steam pre-treatment at 215° C. for 5 min), dry matter 25.9% (SPRUCE).
(§3) The endoglucanases to be studied (dosage 840 nkat/g dry matter, based on endoglucanase activity against HEC according to IUPAC, 1987) were used either with cellobiohydrolases of T. reesei (CBHI/Cel7A, 8.1 mg/g d.m. and CBHII/Cel6A, 2.0 mg/g d.m.) or with Thermoascus aurantiacus Cel7A with genetically attached CBD of T. reesei (10.1 mg/g d.m.). Purified (Suurnäkki et al., 2000) EGI (Cel7B) and EGII (Cel5A) of T. reesei were also included in the experiments for comparison. All mixtures were supplemented with additional β-glucosidase from Novozym 188 (to make the total β-glucosidase dosage 560 nkat/g d.w., the relatively high dosage was used to compensate the differences in the background activities of the different EG preparations). Triplicate tubes were incubated in mixing at 45° C. for 48 h and reference samples with inactivated enzymes and corresponding substrates were prepared. The release of hydrolysis products was measured as reducing sugars with DNS method using glucose as standard (Table 31).

Data set [4] in a line: Hydrolysis with endoglucanase preparations, corn stover. Particulars: 48 h, 45° C., pH 5.0. The method, then: as §2
Steam exploded corn stover fibre (steam pre-treatment at 210° C. for 5 min), dry matter 31.0% (SECS).
as §3

Data set [5] is described as follows: pH optimum of heterologously produced β-glucosidases. Particulars: McIlvaine's buffer, pH range 3.0-8.0, 4-nitrophenyl-β-D-glucopyranoside. Here is the method: (§4) The pH optimum of the heterologously produced β-glucosidases was determined in the universal McIlvaine's buffer within a pH range of 3.0-8.0 using 4-nitrophenyl-β-D-glucopyranoside as substrate. The pH optima for the Acremonium βG—101, Chaetomium βG—76, and Thermoascus βG—81 are pH 4.5, 5.5, and 4.5, respectively (FIG. 7 A). The optimal temperature for enzymatic activity of these β-glucosidases was determined at the temperature range of 50-85° C. as described above. The highest activity of the enzymes was determined to be at 70° C., 65° C., and 75° C. for the Acremonium βG—101/Cel3A, Chaetomium βG—76/Cel3A, and Thermoascus βG—81/Cel3A, respectively (FIG. 7 B).

Data set [6] can be described thus: Temperature optimum of heterologously produced β-glucosidases. The note with it: temperature range 50-85° C., 60 min. Here is the method:
as §4

Data set [7] is described as follows: Endoglucanase activity on carboxymethyl cellulose. The note with it: purified endoglucanase, 50° C., procedure of IUPAC 1987. Here is the method: The specific activity of the preparations was determined using 4-methylumbelliferyl-β-D-lactoside (MUL), 4-methylumbelliferyl-β-D-cellobioside (MUG2) or 4-methylumbelliferyl-β-D-cellotrioside (MUG3) as substrate (van Tilbeurgh et al., 1988) in 0.05 M sodium citrate buffer pH 5 at 50° C. for 10 min. Endoglucanase and xylanase activities were determined by standard procedures (according to IUPAC, 1987) using carboxymethyl cellulose (CMC) and birch glucuronoxylan (Bailey et al., 1992) as substrates. Specific activity against Avicel was calculated on the basis of reducing sugars formed in a 24 h reaction at 50° C., pH 5.0, with 1% substrate and 0.25 μM enzyme dosage. The protein content of the purified enzyme preparations was measured according to Lowry et al., 1951. To characterize the end products of hydrolysis, soluble sugars liberated in 24 h hydrolysis experiment, as described above, were analysed by HPLC (Dionex). Purified cellobiohydrolase I (CBHI/Cel7A) of Trichoderma reesei was used as a reference.
Acremonium thermophilum ALKO4245 was grown as described in Example 1. The culture supernatant was incubated at 70° C. for 24 hours after which it was concentrated by ultrafiltration. The pure endoglucanase was obtained by sequential purification with hydrophobic interaction and cation exchange chromatography followed by gel filtration. The endoglucanase activity of the fractions collected during purification was determined using carboxymethyl cellulose (CMC) as substrate (procedure of IUPAC 1987). Protein content was measured by BioRad Assay Kit (Bio-Rad Laboratories) using bovine serum albumine as standard.
Thermoascus aurantiacus ALKO4242 was grown as described in Example 1. The pure endoglucanase was obtained by sequential purification with hydrophobic interaction and anion exchange chromatography followed by gel filtration. The endoglucanase activity of the fractions collected during purification was determined using carboxymethyl cellulose (CMC) as substrate (procedure of IUPAC 1987). Protein content was measured by BioRad Assay Kit (Bio-Rad Laboratories) using bovine serum albumine as standard.

The mark [8] stands for this setting: with CBHI and CBHII of T. reesei.
Setting [9] is: with T. aurantiacus Cel7A + Tr CBD.

B1: At EG_40_like: endoglucanase of Acremonium thermophilum ALKO4245, gene At cel45B, amino acid SEQ ID NO: 14 (protein)
chain: MRLPLPTLLALLPYYLEVSAQGASGTGTTTRYWDCCKPSCAWPLKGNSPSPVQTCDKNDRPLNDGGNTKSGCDNGGGAFMCSSQSPWAVNETTSYGWAAVRIAGSTESAWCCACYELTFTSGPVSGKKLIVQATNTGGDLGSNHFDLAIPGGGVGQSNACTNQYGAPPNGWGDRYGGVHSRSDCDSFPAALKAGCYWRFDWFQGADNPSVSFKQVACPAAITAKSGCTRQNDAINETPTGPSTVPTYTASG
Turning to B1, in data set [1], the pH optimum was 5.0-5.5. The “Temperature of highest activity” value in data set [2] amounted to 60 °C. Further, the “Hydrolysis products as reducing sugars, SPRUCE” value in data set [3] (setting [8]) was 4.5 mg/mL. In addition, the “Hydrolysis products as reducing sugars, SECS” value in data set [4] (setting [8]) amounted to 4.8 mg/mL.

B2: Ct βG_76: beta-glucosidase of Chaetomium thermophilum ALKO4261, gene Ct cel3A, amino acid SEQ ID NO: 26 (protein)
chain: MALHAFLLLASALLARGALSQPDNVRRAAPTGTAAWDAAHSQAAAAVSRLSQQDKINIVTGVGWGKGPCVGNTNPVYSINYPQLCLQDGPLGIRSATSVTAFTPGIQAASTWDVELIRQRGVYLGQEARGTGVHVLLGPVAGALGKIPHGGRNWEAFGSDPYLAGIAMSETIEGIQSEGVQACAKHYIANEQELNRETMSSNVDDRTMHELYLWPFADAVHSNVASVMCSYNKLNGTWLCENDRAQNQLLKRELGFRGYIVSDWNAQHTTVGSANSGMDMTMPGSDFNGWNVLWGPQLNNAVNSGQVSQSRLNDMVQRILAAWYLLGQNSGYPSINLRANVQANHKENVRAVARDGIVLLKNDGILPLQRPNKIALVGSAAVVNPRGMNACVDRGCNEGALGMGWGSGTVEYPYFVAPYDALRERAQRDGTQISLHASDNTNGVNNAVQGADAAFVFITADSGEGYITVEGHAGDRNHLDPWHNGNQLVQAVAQANKNVIVVVHSVGPVILETILNTPGVRAVVWAGLPSQESGNALVDVLYGLVSPSGKLVYTIAKSPSDYPTSIVRGDDNFREGLFIDYRHFDNARIEPRFEFGFGLSYTNFSYSNLGISSSATAGPATGPTVPGGPADLWNYVATVTATVTNTGGVEGAEVAQLYISLPSSAPASPPKQLRGFVKLKLAPGQSGTATFRLRKRDLAYWDVGRQNWVVPSGRFGVLVGASSRDIRLQGEIVV
For B2, the pH optimum in data set [5] came out at 5.5. Moreover, the “Temperature of highest activity” value in data set [6] stood at 65 °C.

B3: At EG_40: endoglucanase of Acremonium thermophilum ALKO4245, gene At cel45A, amino acid SEQ ID NO: 12 (protein)
chain: MRSSPFLRAALAAALPLSAHALDGKSTRYWDCCKPSCGWPGKASVNQPVFSCSADWQRISDFNAKSGCDGGSAYSCADQTPWAVNDNFSYGFAATAIAGGSESSWCCACYALTFNSGPVAGKTMVVQSTSTGGDLGSNQFDLAIPGGGVGIFNGCASQFGGLPGAQYGGISDRSQCSSFPAPLQPGCQWRFDWFQNADNPTFTFQRVQCPSELTSRTGCKRDDDASYPVFNPPSGGSPSTTSTTTSSPSGPTGNPPGGGGCTAQKWAQCGGTGFTGCTTCVSGTTCQVQNQWYSQCL
Take B3: the “Specific activity on CMC” value in data set [7] is 450 nkat/mg. Further, the “pH range (broadest)” value in data set [1] (CMC) is 4.5-6.0. This molecule also registered a pH optimum in data set [1] of 5.5. In addition, the “Temperature of highest activity” value in data set [2] stood at 75 °C. Further, the entries for the “Hydrolysis products as reducing sugars, SPRUCE” value in data set [3] (setting [8]) and in data set [3] (setting [9]) were 4.9 mg/mL and 4.8 mg/mL, respectively. The figures for the “Hydrolysis products as reducing sugars, SECS” value in data set [4] (setting [8]) and in data set [4] (setting [9]) were 4.3 mg/mL and 4.0 mg/mL, respectively.
